Test results as given in patent US20190225650A1, “PEPTIDOMIMETIC MACROCYCLES AND USE THEREOF IN REGULATING HIF1ALPHA” (AILERON THERAPEUTICS, INC., priority 2013, published 2019).
Values belong to the binder of their own block, whether it stands above or below them. Bridge positions count the residues as written; N and C are the ends. Square brackets hold non-standard residues; d marks the D form. S5 = C=CCCC[C@](C)(N)C(=O)O; Nle = CCCC[C@H](N)C(=O)O

Biological target: T1, His6-tagged p300 (AA 323-423) (UniProt Q09472 323-423)
T1 construct: range 323-423; also called p300-CH; not shown: His6 tag
Test: TR-FRET HIF1a/p300 displacement; grade = IC50 >700 nM
Method: The ability of peptides to displace HIF1α c-terminal trans-activation domain from p300-CH was measured by a TR FRET assay. […] The complex was diluted to 300 nM final in complete assay media and competitor peptides were added. The complete assay media contained 150 mM NaCl (Sigma +S5150 or equivalent), 20 mM HEPES pH 7.4 (Boston Bioproducts, Ashland, Mass.; #BB-2076), 7.5 mM CHAPS (Thermo #28300 or equivalent), and 1 mM DTT. Protein and peptide were incubated at room temperature for 1 hour before the addition of anti-Flag-K and anti-6×HIS-D2 (CisBio, Bedford Mass.) HTRF reconstitution buffer (50 mM Phosphate pH 7, 0.8 Potassium Flouride, BSA 0.2%)¹ to a final concentration of 0.5 μM and 4 nM respectively. The reaction continued for an additional two hours at room temperature. The reaction was read on a TECAN F500 plate reader with settings recommended by CisBio. The ratio of donor to acceptor fluorescence was calculated. The resulting data was analyzed with Graphpad Prism 5.0. IC50 values were calculated for both proteins using the One Site Fit-LogIC50 equation and presented in the column “IC₅₀ (nM) (HIF1α_p300 Displacement+CHAPS)” of Table 6. ¹ Cisbio USA, Bedford, Mass.; 61HISDLB (lot 007A), 61FG2KLB (024A), HTRF Buffer (62RB3RDF)

T1 sequence (Q09472 323-423 limits assumed): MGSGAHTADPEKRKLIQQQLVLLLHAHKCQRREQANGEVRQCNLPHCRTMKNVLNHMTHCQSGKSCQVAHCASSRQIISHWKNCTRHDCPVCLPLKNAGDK

B4: SP-45 (peptide)
peptide: Ac-FSDEEVL[Nle][S5]LVI[S5][Nle]ALDRI-NH2
modifications: staple 9-13
SMILES: CCCC[C@H](NC(=O)[C@H](CC(C)C)NC(=O)[C@@H](NC(=O)[C@H](CCC(=O)O)NC(=O)[C@H](CCC(=O)O)NC(=O)[C@H](CC(=O)O)NC(=O)[C@H](CO)NC(=O)[C@H](Cc1ccccc1)NC(C)=O)C(C)C)C(=O)N[C@@]1(C)CCCC=CCCC[C@@](C)(C(=O)N[C@@H](CCCC)C(=O)N[C@@H](C)C(=O)N[C@@H](CC(C)C)C(=O)N[C@@H](CC(=O)O)C(=O)N[C@@H](CCCNC(=N)N)C(=O)N[C@H](C(N)=O)[C@@H](C)CC)NC(=O)[C@H]([C@@H](C)CC)NC(=O)[C@H](C(C)C)NC(=O)[C@H](CC(C)C)NC1=O
IC50: > 700 nM

B5: SP-44 (peptide)
peptide: Ac-SIDEEVL[Nle][S5]LVI[S5][Nle]ALDRI-NH2
modifications: staple 9-13
SMILES: CCCC[C@H](NC(=O)[C@H](CC(C)C)NC(=O)[C@@H](NC(=O)[C@H](CCC(=O)O)NC(=O)[C@H](CCC(=O)O)NC(=O)[C@H](CC(=O)O)NC(=O)[C@@H](NC(=O)[C@H](CO)NC(C)=O)[C@@H](C)CC)C(C)C)C(=O)N[C@@]1(C)CCCC=CCCC[C@@](C)(C(=O)N[C@@H](CCCC)C(=O)N[C@@H](C)C(=O)N[C@@H](CC(C)C)C(=O)N[C@@H](CC(=O)O)C(=O)N[C@@H](CCCNC(=N)N)C(=O)N[C@H](C(N)=O)[C@@H](C)CC)NC(=O)[C@H]([C@@H](C)CC)NC(=O)[C@H](C(C)C)NC(=O)[C@H](CC(C)C)NC1=O
IC50: > 700 nM

B6: SP-39 (peptide)
peptide: Ac-FIDEEVL[Nle][S5]LVI[S5][Nle]ELDRI-NH2
modifications: staple 9-13
SMILES: CCCC[C@H](NC(=O)[C@H](CC(C)C)NC(=O)[C@@H](NC(=O)[C@H](CCC(=O)O)NC(=O)[C@H](CCC(=O)O)NC(=O)[C@H](CC(=O)O)NC(=O)[C@@H](NC(=O)[C@H](Cc1ccccc1)NC(C)=O)[C@@H](C)CC)C(C)C)C(=O)N[C@@]1(C)CCCC=CCCC[C@@](C)(C(=O)N[C@@H](CCCC)C(=O)N[C@@H](CCC(=O)O)C(=O)N[C@@H](CC(C)C)C(=O)N[C@@H](CC(=O)O)C(=O)N[C@@H](CCCNC(=N)N)C(=O)N[C@H](C(N)=O)[C@@H](C)CC)NC(=O)[C@H]([C@@H](C)CC)NC(=O)[C@H](C(C)C)NC(=O)[C@H](CC(C)C)NC1=O
IC50: > 700 nM

B9: SP-29 (peptide)
peptide: Ac-DFIDEEVL[Nle][S5]LVI[S5][Nle]ALDRI-NH2
modifications: staple 10-14
SMILES: CCCC[C@H](NC(=O)[C@H](CC(C)C)NC(=O)[C@@H](NC(=O)[C@H](CCC(=O)O)NC(=O)[C@H](CCC(=O)O)NC(=O)[C@H](CC(=O)O)NC(=O)[C@@H](NC(=O)[C@H](Cc1ccccc1)NC(=O)[C@H](CC(=O)O)NC(C)=O)[C@@H](C)CC)C(C)C)C(=O)N[C@@]1(C)CCCC=CCCC[C@@](C)(C(=O)N[C@@H](CCCC)C(=O)N[C@@H](C)C(=O)N[C@@H](CC(C)C)C(=O)N[C@@H](CC(=O)O)C(=O)N[C@@H](CCCNC(=N)N)C(=O)N[C@H](C(N)=O)[C@@H](C)CC)NC(=O)[C@H]([C@@H](C)CC)NC(=O)[C@H](C(C)C)NC(=O)[C@H](CC(C)C)NC1=O
IC50: > 700 nM

More lines, now with the values ahead:

IC50: > 700 nM
B1: SP-28 (peptide)
peptide: Ac-FIDEEVLA[S5]LVI[S5]AALDR-NH2
modifications: staple 9-13
SMILES: CC[C@H](C)[C@H](NC(=O)[C@H](Cc1ccccc1)NC(C)=O)C(=O)N[C@@H](CC(=O)O)C(=O)N[C@@H](CCC(=O)O)C(=O)N[C@@H](CCC(=O)O)C(=O)N[C@H](C(=O)N[C@@H](CC(C)C)C(=O)N[C@@H](C)C(=O)N[C@@]1(C)CCCC=CCCC[C@@](C)(C(=O)N[C@@H](C)C(=O)N[C@@H](C)C(=O)N[C@@H](CC(C)C)C(=O)N[C@@H](CC(=O)O)C(=O)N[C@@H](CCCNC(=N)N)C(N)=O)NC(=O)[C@H]([C@@H](C)CC)NC(=O)[C@H](C(C)C)NC(=O)[C@H](CC(C)C)NC1=O)C(C)C

IC50: > 700 nM
B2: SP-198 (peptide)
peptide: Ac-FIAEXVL[Nle]SLVXA[Nle]AL-NH2
modifications: staple 5-12; not fully specified (residues 5, 12); printed as Ac-FIAE-$r8-VL-Nle-SLV-$-A-Nle-AL-NH2

IC50: > 700 nM
B3: SP-42 (peptide)
peptide: Ac-FIDEEVL[Nle][S5]LVI[S5][Nle]ALDRE-NH2
modifications: staple 9-13
SMILES: CCCC[C@H](NC(=O)[C@H](CC(C)C)NC(=O)[C@@H](NC(=O)[C@H](CCC(=O)O)NC(=O)[C@H](CCC(=O)O)NC(=O)[C@H](CC(=O)O)NC(=O)[C@@H](NC(=O)[C@H](Cc1ccccc1)NC(C)=O)[C@@H](C)CC)C(C)C)C(=O)N[C@@]1(C)CCCC=CCCC[C@@](C)(C(=O)N[C@@H](CCCC)C(=O)N[C@@H](C)C(=O)N[C@@H](CC(C)C)C(=O)N[C@@H](CC(=O)O)C(=O)N[C@@H](CCCNC(=N)N)C(=O)N[C@@H](CCC(=O)O)C(N)=O)NC(=O)[C@H]([C@@H](C)CC)NC(=O)[C@H](C(C)C)NC(=O)[C@H](CC(C)C)NC1=O

IC50: > 700 nM
B7: SP-325 (peptide)
peptide: Ac-LLQ[S5]EEL[S5]RALDQVNIDE[S5]VL[Nle][S5]LVIE[Nle]G-NH2
modifications: staple 19-23, 4-8
SMILES: CCCC[C@H](NC(=O)[C@H](CCC(=O)O)NC(=O)[C@@H](NC(=O)[C@@H](NC(=O)[C@H](CC(C)C)NC(=O)[C@]1(C)CCCC=CCCC[C@](C)(NC(=O)[C@H](CCC(=O)O)NC(=O)[C@H](CC(=O)O)NC(=O)[C@@H](NC(=O)[C@H](CC(N)=O)NC(=O)[C@@H](NC(=O)[C@H](CCC(N)=O)NC(=O)[C@H](CC(=O)O)NC(=O)[C@H](CC(C)C)NC(=O)[C@H](C)NC(=O)[C@H](CCCNC(=N)N)NC(=O)[C@]2(C)CCCC=CCCC[C@](C)(NC(=O)[C@H](CCC(N)=O)NC(=O)[C@H](CC(C)C)NC(=O)[C@H](CC(C)C)NC(C)=O)C(=O)N[C@@H](CCC(=O)O)C(=O)N[C@@H](CCC(=O)O)C(=O)N[C@@H](CC(C)C)C(=O)N2)C(C)C)[C@@H](C)CC)C(=O)N[C@@H](C(C)C)C(=O)N[C@@H](CC(C)C)C(=O)N[C@@H](CCCC)C(=O)N1)C(C)C)[C@@H](C)CC)C(=O)NCC(N)=O

IC50: > 700 nM
B8: SP-250 (peptide)
peptide: Ac-FIDQAVF[Nle][S5]LVI[S5][Nle]ALL-NH2
modifications: staple 9-13
SMILES: CCCC[C@H](NC(=O)[C@H](Cc1ccccc1)NC(=O)[C@@H](NC(=O)[C@H](C)NC(=O)[C@H](CCC(N)=O)NC(=O)[C@H](CC(=O)O)NC(=O)[C@@H](NC(=O)[C@H](Cc1ccccc1)NC(C)=O)[C@@H](C)CC)C(C)C)C(=O)N[C@@]1(C)CCCC=CCCC[C@@](C)(C(=O)N[C@@H](CCCC)C(=O)N[C@@H](C)C(=O)N[C@@H](CC(C)C)C(=O)N[C@@H](CC(C)C)C(N)=O)NC(=O)[C@H]([C@@H](C)CC)NC(=O)[C@H](C(C)C)NC(=O)[C@H](CC(C)C)NC1=O
